Target: T1, dipeptidylpeptidase IV (DPPIV) expressed on rat proximal tubular epithelial cells (PTEC) (rat, UniProt P14740 1-767)
T1 construct: whole, on cells; also called K9/9 antigen; glycoprotein expressed on rat glomerular epithelial cells and PTEC
Test: in vivo biodistribution of 125I-labelled protein in rats, 48 h after tail vein injection
Description: Biodistribution studies were performed using standard procedures for determining tissue distribution of injected radiolabeled proteins (41, 33). […] After 48 h, a blood sample was taken, and major organs were removed, shredded, washed in PBS containing 10 mM EDTA, weighed, and counted. Targeting specificity was determined as percentage of cpm per gram of tissue divided by total injected cpm per gram of body weight.

T1 sequence (P14740 whole entry): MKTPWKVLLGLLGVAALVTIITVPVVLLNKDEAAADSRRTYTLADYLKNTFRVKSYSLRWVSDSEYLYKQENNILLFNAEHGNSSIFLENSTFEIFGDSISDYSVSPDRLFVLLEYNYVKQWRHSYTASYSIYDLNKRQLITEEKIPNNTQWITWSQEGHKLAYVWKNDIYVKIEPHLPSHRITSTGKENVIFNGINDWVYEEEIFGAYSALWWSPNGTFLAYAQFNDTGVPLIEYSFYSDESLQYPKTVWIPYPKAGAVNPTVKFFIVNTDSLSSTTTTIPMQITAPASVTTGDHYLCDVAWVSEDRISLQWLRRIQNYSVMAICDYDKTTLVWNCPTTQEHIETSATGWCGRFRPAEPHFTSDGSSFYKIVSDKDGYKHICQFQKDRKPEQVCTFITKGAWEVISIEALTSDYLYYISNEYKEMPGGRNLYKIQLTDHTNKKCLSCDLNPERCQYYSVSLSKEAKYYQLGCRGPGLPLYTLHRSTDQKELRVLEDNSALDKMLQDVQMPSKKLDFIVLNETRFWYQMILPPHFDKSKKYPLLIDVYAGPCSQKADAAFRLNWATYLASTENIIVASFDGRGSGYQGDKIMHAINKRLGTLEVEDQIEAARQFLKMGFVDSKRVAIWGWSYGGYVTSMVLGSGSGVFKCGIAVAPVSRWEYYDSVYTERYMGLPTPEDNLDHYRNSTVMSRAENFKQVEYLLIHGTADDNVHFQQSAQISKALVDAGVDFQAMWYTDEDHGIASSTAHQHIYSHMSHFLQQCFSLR

B1: soluble untargeted Crry (sCrry) (other, rat, UniProt Q63135 36-482, looked up)
chain: GQCPAPPLFPYAKPINPTDESTFPVGTSLKYECRPGYIKRQFSITCEVNSVWTSPQDVCIRKQCETPLDPQNGIVHVNTDIRFGSSITYTCNEGYRLIGSSSAMCIISDQSVAWDAEAPICESIPCEIPPSIPNGDFFSPNREDFHYGMVVTYQCNTDARGKKLFNLVGEPSIHCTSIDGQVGVWSGPPPQCIELNKCTPPHVENAVIVSKNKSLFSLRDMVEFRCQDGFMMKGDSSVYCRSLNRWEPQLPSCFKVKSCGAFLGELPNGHVFVPQNLQLGAKVTFVCNTGYQLKGNSSSHCVLDGVESIWNSSVPVCEQVICKLPQDMSGFQKGLQMKKDYYYGDNVALECEDGYTLEGSSQSQCQSDASWDPPLPKCVSQVICKLPQDMSGFQKGLQMKKDYYYGDNVALECEDGYTLEGSSQSQCQSDASWDPPLPKCVSRSNSG
modifications: 125I-iodinated in the biodistribution study
notes: extracellular domain; Untargeted control, expressed in Pichia; also called soluble Crry
B1: no binding.
